Laboratory results reported in US20210388087A1 (Chugai, published 2021).
Numbering of substitutions follows the chain as printed. In names and notes the source's numbering stands.

B1: H183/L072 VH W33D (antibody, name in Kabat numbering, V domains shown)
VH: QVQLVESGGGLVQPGRSLRLSCAASGFTFSNADMHWVRQAPGKGLEWVAQIKDKGNAYAAYYAPSVKGRFTISRDDSKNSIYLQMNSLKTEDTAVYYCHYVHYASASTVLPAFGVDAWGQGTTVTVSS
VL: DIVMTQSPLSLPVTPGEPASISCQASQELVHMNRNTYLHWYQQKPGQAPRLLIYKVSNRFPGVPDRFSGSGSGTDFTLKISRVEAEDVGVYYCAQGTSVPFTFGQGTKLEIK
B2: H183/L072 VH W33E (antibody, name in Kabat numbering, V domains shown)
VH: B1 VH with D33E
VL: B1 VL
B3: H183/L072 VH W33F (antibody, name in Kabat numbering, V domains shown)
VH: B1 VH with D33F
VL: B1 VL
B4: H183/L072 VH W33G (antibody, name in Kabat numbering, V domains shown)
VH: B1 VH with D33G
VL: B1 VL
B5: H183/L072 VH W33H (antibody, name in Kabat numbering, V domains shown)
VH: B1 VH with D33H
VL: B1 VL
B6: H183/L072 VH W33I (antibody, name in Kabat numbering, V domains shown)
VH: B1 VH with D33I
VL: B1 VL
B7: H183/L072 VH W33K (antibody, name in Kabat numbering, V domains shown)
VH: B1 VH with D33K
VL: B1 VL
B8: H183/L072 VH W33L (antibody, name in Kabat numbering, V domains shown)
VH: B1 VH with D33L
VL: B1 VL
B9: H183/L072 VH W33M (antibody, name in Kabat numbering, V domains shown)
VH: B1 VH with D33M
VL: B1 VL
B10: H183/L072 VH W33N (antibody, name in Kabat numbering, V domains shown)
VH: B1 VH with D33N
VL: B1 VL
B11: H183/L072 VH W33P (antibody, name in Kabat numbering, V domains shown)
VH: B1 VH with D33P
VL: B1 VL
B12: H183/L072 VH W33Q (antibody, name in Kabat numbering, V domains shown)
VH: B1 VH with D33Q
VL: B1 VL
B13: H183/L072 VH W33R (antibody, name in Kabat numbering, V domains shown)
VH: B1 VH with D33R
VL: B1 VL
B14: H183/L072 VH W33S (antibody, name in Kabat numbering, V domains shown)
VH: B1 VH with D33S
VL: B1 VL
B15: H183/L072 VH W33T (antibody, name in Kabat numbering, V domains shown)
VH: B1 VH with D33T
VL: B1 VL
B16: H183/L072 VH W33V (antibody, name in Kabat numbering, V domains shown)
VH: B1 VH with D33V
VL: B1 VL
B17: H183/L072 VH W33Y (antibody, name in Kabat numbering, V domains shown)
VH: B1 VH with D33Y
VL: B1 VL
B18: H183/L072 VH Y55A (antibody, name in Kabat numbering, V domains shown)
VH: B1 VH with D33W, Y58A
VL: B1 VL
B19: H183/L072 VH Y55D (antibody, name in Kabat numbering, V domains shown)
VH: B1 VH with D33W, Y58D
VL: B1 VL
B20: H183/L072 VH Y55E (antibody, name in Kabat numbering, V domains shown)
VH: B1 VH with D33W, Y58E
VL: B1 VL
B21: H183/L072 VH Y55F (antibody, name in Kabat numbering, V domains shown)
VH: B1 VH with D33W, Y58F
VL: B1 VL
B22: H183/L072 VH Y55G (antibody, name in Kabat numbering, V domains shown)
VH: B1 VH with D33W, Y58G
VL: B1 VL
B23: H183/L072 VH Y55H (antibody, name in Kabat numbering, V domains shown)
VH: B1 VH with D33W, Y58H
VL: B1 VL
B24: H183/L072 VH Y55I (antibody, name in Kabat numbering, V domains shown)
VH: B1 VH with D33W, Y58I
VL: B1 VL
B25: H183/L072 VH Y55K (antibody, name in Kabat numbering, V domains shown)
VH: B1 VH with D33W, Y58K
VL: B1 VL
B26: H183/L072 VH Y55L (antibody, name in Kabat numbering, V domains shown)
VH: B1 VH with D33W, Y58L
VL: B1 VL
B27: H183/L072 VH Y55M (antibody, name in Kabat numbering, V domains shown)
VH: B1 VH with D33W, Y58M
VL: B1 VL
B28: H183/L072 VH Y55N (antibody, name in Kabat numbering, V domains shown)
VH: B1 VH with D33W, Y58N
VL: B1 VL
B29: H183/L072 VH Y55P (antibody, name in Kabat numbering, V domains shown)
VH: B1 VH with D33W, Y58P
VL: B1 VL
B30: H183/L072 VH Y55Q (antibody, name in Kabat numbering, V domains shown)
VH: B1 VH with D33W, Y58Q
VL: B1 VL
B31: H183/L072 VH Y55R (antibody, name in Kabat numbering, V domains shown)
VH: B1 VH with D33W, Y58R
VL: B1 VL
B32: H183/L072 VH Y55S (antibody, name in Kabat numbering, V domains shown)
VH: B1 VH with D33W, Y58S
VL: B1 VL
B33: H183/L072 VH Y55T (antibody, name in Kabat numbering, V domains shown)
VH: B1 VH with D33W, Y58T
VL: B1 VL
B34: H183/L072 VH Y55V (antibody, name in Kabat numbering, V domains shown)
VH: B1 VH with D33W, Y58V
VL: B1 VL
B35: H183/L072 VH Y55W (antibody, name in Kabat numbering, V domains shown)
VH: B1 VH with D33W, Y58W
VL: B1 VL
B36: H183/L072 VH Y58A (antibody, name in Kabat numbering, V domains shown)
VH: B1 VH with D33W, Y61A
VL: B1 VL
B37: H183/L072 VH Y58D (antibody, name in Kabat numbering, V domains shown)
VH: B1 VH with D33W, Y61D
VL: B1 VL
B38: H183/L072 VH Y58E (antibody, name in Kabat numbering, V domains shown)
VH: B1 VH with D33W, Y61E
VL: B1 VL
B39: H183/L072 VH Y58F (antibody, name in Kabat numbering, V domains shown)
VH: B1 VH with D33W, Y61F
VL: B1 VL
B40: H183/L072 VH Y58G (antibody, name in Kabat numbering, V domains shown)
VH: B1 VH with D33W, Y61G
VL: B1 VL
B41: H183/L072 VH Y58H (antibody, name in Kabat numbering, V domains shown)
VH: B1 VH with D33W, Y61H
VL: B1 VL
B42: H183/L072 VH Y58I (antibody, name in Kabat numbering, V domains shown)
VH: B1 VH with D33W, Y61I
VL: B1 VL
B43: H183/L072 VH Y58K (antibody, name in Kabat numbering, V domains shown)
VH: B1 VH with D33W, Y61K
VL: B1 VL
B44: H183/L072 VH Y58L (antibody, name in Kabat numbering, V domains shown)
VH: B1 VH with D33W, Y61L
VL: B1 VL
B45: H183/L072 VH Y58M (antibody, name in Kabat numbering, V domains shown)
VH: B1 VH with D33W, Y61M
VL: B1 VL

Target: T1, Human CD3eg linker (human)
T1 construct: Single chain: epsilon and gamma subunits of human CD3 joined by a 29-mer linker, Flag-tag at the C-terminus; also called recombinant human CD3
T1 chain: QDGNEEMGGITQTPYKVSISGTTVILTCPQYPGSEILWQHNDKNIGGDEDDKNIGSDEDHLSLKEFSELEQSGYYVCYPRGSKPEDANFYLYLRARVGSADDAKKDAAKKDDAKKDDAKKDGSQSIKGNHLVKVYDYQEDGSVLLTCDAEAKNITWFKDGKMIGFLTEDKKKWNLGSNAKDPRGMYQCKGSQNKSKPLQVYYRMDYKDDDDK
Experiment: Biacore SPR, vs template H183/L072

In order of falling “fold change of affinity” value:
1. B39  1.4 fold
2. B21  0.8 fold
3. B23  0.7 fold
4. B28  0.7 fold
5. B20  0.6 fold
6. B22  0.6 fold
7. B27  0.6 fold
8. B36  0.6 fold
9. B41  0.6 fold
10. B43  0.6 fold
11. B26  0.5 fold
12. B30  0.5 fold
13. B35  0.5 fold
14. B3  0.4 fold
15. B18  0.4 fold
16. B19  0.4 fold
17. B25  0.4 fold
18. B31  0.4 fold
19. B44  0.4 fold
20. B45  0.4 fold
21. B34  0.3 fold
22. B40  0.3 fold
23. B42  0.3 fold
24. B38  0.2 fold
25. B17  0.1 fold
26. B1  0 fold
27. B2  0 fold
28. B4  0 fold
29. B5  0 fold
30. B6  0 fold
31. B7  0 fold
32. B8  0 fold
33. B9  0 fold
34. B10  0 fold
35. B11  0 fold
36. B12  0 fold
37. B13  0 fold
38. B14  0 fold
39. B15  0 fold
40. B16  0 fold
41. B24  0 fold
42. B29  0 fold
43. B32  0 fold
44. B33  0 fold
45. B37  0 fold
